Test results: article PMC3044768

Target: authentic wild-type SARS-CoV 3C-like protease (3CLpro) (SARS-CoV) (UniProt P0C6X7)
Experiment: ITC

Substance: authentic wild-type SARS-CoV 3C-like protease (3CLpro) (from UniProt P0C6X7 3241-3546) (enzyme)
- Kd: 21.4 µM
